Measured values as given in patent US9301917B2, “Sustained-release pharmaceutical composition” (Kyoto University, priority 2010, dated 2016).

Tests used:
[1] = Influence of sugar on drug release from collagen in vitro (Example 1); assay type: physicochemical; settings: lysozyme 2 mg/mL, atelocollagen 3% [w/v], sucrose 0.05 M vs no sucrose; PBS external liquid, 37° C., HPLC
Experimental: The influence of a sugar on drug release from a collagen was confirmed through use of lysozyme (final concentration: 2 mg/mL) (Sigma-Aldrich Corporation) as a drug.
Lysozyme was dissolved in a physiological buffer (PBS, pH 7.4) containing sucrose (final concentration: 0.05 M) or a physiological buffer containing no sucrose. After that, the solution and an atelocollagen solution (final concentration: 3% [w/v]) (product name: KOKEN ATELOCOLLAGEN IMPLANT) were mixed and formulated.
Conditions for the measurement were as follows: • Initial eluent: 30% acetonitrile solution containing 0.1% triethylamine (TEA) • Final eluent: concentration-gradient elution with 45% acetonitrile solution containing 0.1% TEA • rate: 1 mL/min • Elution time: 30 minutes • Detection wavelength: 220 nm

[2] = Influence of formulation procedure on drug release rate in vivo (Example 3); settings: 100 μL to dorsal subcutis of mice, 1 hour; lysozyme 5 mg/mL, sucrose 0.25 M, atelocollagen 3% [w/v]; different mixing orders
Experimental: The following three kinds of ingredients were mixed in different orders and formulated as shown in the following items a) to d): lysozyme (MW: 14 kDa); sucrose; and atelocollagen (product name: KOKEN ATELOCOLLAGEN IMPLANT).
Each of the formulations was prepared so that the final concentrations of lysozyme, sucrose, and atelocollagen were 5 mg/mL, 0.25 M, and 3% [w/v], respectively.
100 μL of each of the formulations according to the above-mentioned items a) to d) were administered to the dorsal subcutis of mice. One hour later, the formulation that underwent gelation at a body temperature was taken out, and the amount of the lysozyme remaining in the gel was measured by HPLC to calculate the release amount of the lysozyme.

Substance: lysozyme
- amount of the lysozyme released into the external liquid [1]: large in the case of containing sucrose as compared to the case of containing no sucrose
- release amount of the lysozyme in vivo [2]: varied depending on a change in mixing procedure
